Measurements: patent US20090148513A1 (AbbVie / Abbott, published 2009)

Biological target: rHuTNF (human, UniProt P01375 77-233)
Assay: cell-based or functional assay

Sequence of rHuTNF (P01375 77-233 limits assumed): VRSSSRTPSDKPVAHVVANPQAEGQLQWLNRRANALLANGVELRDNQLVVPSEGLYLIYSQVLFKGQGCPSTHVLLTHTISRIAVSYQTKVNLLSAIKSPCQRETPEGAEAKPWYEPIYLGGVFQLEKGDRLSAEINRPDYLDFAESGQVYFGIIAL

B1: MAK195F, F(ab')2 fragment of the murine IgG3 monoclonal anti-hTNFalpha antibody MAK195 (other)
light: DIVMTQSHKFMSTTVGDRVSITCKASQAVSSAVAWYQQKPGQSPKLLIYWASTRHTGVPDRFTGSGSVTDFTLTIHNLQAEDLALYYCQQHYSTPFTFGSGTKLEIKRADAAPTVSIFPPSSEQLTSGGASVVCFLNNFYPKDINVKWKIDGSERQNGVLNSWTDQDSKDSTYSMSSTLTLTKDEYERHNSYTCEATHKTSTSPIVKSFNRNEC
heavy: QVQLKESGPGLVAPSQSLSITCTVSGFSLTDYGVNWVRQPPGKGLEWLGMIWGDGSTDYDSTLKSRLSISKDNSKSQIFLKMNSLQTDDTARYYCAREWHHGPVAYWGQGTLVTVSAATTTAPSVYPLVPGCSDTSGSSVTLGCLVKGYFPEPVTVKWNYGALSSGVRTVSSVLQSGFYSLSSLVTVPSSTWPSQTVICNVAHPASKTELIKRIEPRIPKPSTPPGSSCPPGNILGGPSVF
modifications: N-terminal glutamine completely converted into pyroglutamic acid; partial O-glycosylation at SerH222 (about 70% of Fd' fragments non-glycosylated); deamidation of a single asparagine residue (AsnL157)
  relative biological activity (neutralisation of rHuTNF cytotoxicity on mouse L-929 cells; mean IC50 of reference standard / IC50 of sample x 100%): 102%
